In general, stoichiometry N refers to the number of molecules, sites or subunits per partner or assembly.

This experiment deals with KcsA potassium channel, L90C, chymotrypsin-truncated (UniProt P0A334). Briefly: crystal structure.

Turning to “KcsA potassium channel, L90C, chymotrypsin-truncated (from UniProt P0A334 1-160) (natural protein)”, the stoichiometry N came to 4.

(Values after PMC4139162.)
